Measured values from patent US20050084876A1 (APOXIS SA FORMERLY APOTECH RESEARCH AND DEVELOPMENT LTD A …, published 2005).

B3: adaptor protein FADD (human) (other, UniProt Q13158 1-208, looked up)
chain: MDPFLVLLHSVSSSLSSSELTELKFLCLGRVGKRKLERVQSGLDLFSMLLEQNDLEPGHTELLRELLASLRRHDLLRRVDDFEAGAAAGAAPGEEDLCAAFNVICDNVGKDWRRLARQLKVSDTKIDSIEDRYPRNLTERVRESLRIWKNTEKENATVAHLVGALRSCQMNLVADLVQEVQQARDLQNRSGAMSPMSWNSDASTSEAS
notes: also called CAP1

Key:
[1] = target: T1, Flag-marked FLIPP (caspase-homologous C-terminal protein segment of human FLIPL) (human, UniProt O15519 233-480); assay: anti-Flag immune precipitation, anti-myc Western blot, co-transfected 293T cells (with FADD)
T1 construct: also called caspase-homologous protein segment of FLIPL
T1 sequence (O15519 other isoform, or with tags, fused parts or gaps limits assumed): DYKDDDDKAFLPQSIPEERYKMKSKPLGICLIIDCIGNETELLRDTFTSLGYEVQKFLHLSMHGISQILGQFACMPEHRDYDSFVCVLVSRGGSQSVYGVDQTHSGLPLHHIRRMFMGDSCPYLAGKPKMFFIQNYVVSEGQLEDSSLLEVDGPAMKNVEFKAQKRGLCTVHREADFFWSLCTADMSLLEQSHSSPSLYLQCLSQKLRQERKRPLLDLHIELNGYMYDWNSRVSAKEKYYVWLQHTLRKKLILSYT

[2] = target: T2, CD95 (APO-1/Fas) death receptor of human Raji B cells, stimulated with agonistic anti-APO-1 antibody (human, UniProt P25445 26-335); assay: anti-CD95 (APO-1) immune precipitation from Raji clones, gels
T2 construct: whole, on cells; also called CD95 death receptor; CD95 receptor complex
T2 sequence: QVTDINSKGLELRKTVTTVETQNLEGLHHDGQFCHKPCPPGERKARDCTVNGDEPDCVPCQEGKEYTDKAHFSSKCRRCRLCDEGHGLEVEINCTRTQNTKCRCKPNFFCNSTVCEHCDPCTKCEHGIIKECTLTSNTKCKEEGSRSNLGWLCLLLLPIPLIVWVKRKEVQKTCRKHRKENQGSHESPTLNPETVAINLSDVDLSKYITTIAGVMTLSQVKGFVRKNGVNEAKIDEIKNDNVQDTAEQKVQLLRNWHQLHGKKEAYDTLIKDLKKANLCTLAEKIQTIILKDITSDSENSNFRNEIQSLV

[3] = target: B3; assay: anti-Flag immune precipitation, anti-FADD Western blot, 293T cells
[4] = target: T1, Flag-marked FLIPP (caspase-homologous …); assay: anti-Flag immune precipitation, anti-FADD Western blot, co-transfected 293T cells
[5] = target: T3, Flag-marked 159L protein (viral FLIP, ORF 159L of molluscum contagiosum virus, MCV) (molluscum contagiosum virus (MCV), UniProt Q98325 1-241); assay: co-transfection in 293T cells, anti-Flag immune precipitation, anti-FADD Western blot
T3 construct: also called Flag-159L; 159L-FLIP (MCV)
T3 sequence: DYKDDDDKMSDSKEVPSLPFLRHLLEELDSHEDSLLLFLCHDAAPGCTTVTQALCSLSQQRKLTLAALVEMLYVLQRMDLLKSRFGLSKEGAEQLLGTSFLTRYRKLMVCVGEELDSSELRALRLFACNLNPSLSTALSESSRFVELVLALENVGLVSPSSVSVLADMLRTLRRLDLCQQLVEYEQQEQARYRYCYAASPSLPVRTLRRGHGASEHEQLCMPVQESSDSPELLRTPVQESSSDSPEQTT

B1: myc-marked cytoplasmic protein segment of the CD95 (Fas) death receptor (receptor, murine, UniProt P25446 187-327, looked up, not shown: small tags and cut ends)
chain: RKYRKRKCWKRRQDDPESRTSSRETIPMNASNLSLSKYIPRIAEDMTIQEAKKFARENNIKEGKIDEIMHDSIQDTAEQKVQLLLCWYQSHGKSDAYQDLIKGLKKAECRRTLDKFQDMVQKDLGKSTPDTGNENEGQCLE
notes: range 166-306; also called myc-CD95; my-CD95
B1: no binding [1].

B2: Flag-marked E8 protein (viral FLIP, ORF E8 of equine herpes virus 2, EHV-2) (other, equine herpes virus 2 (EHV-2))
chain: DYKDDDDKMSHYSMIDTYFSLDEDETETYLYLCRDLLKNKGEFQCTRDAFKFLSDYACLSAANQMELLFRVGRLDLIRRIFGQTWTPDSCPRYYMPICSPFRCLMALVNDFLSDKEVEEMYFLCAPRLESHLEPGSKKSFLRLASLLEDLELLGGDKLTFLRHLLTTIGRADLVKNLQV
notes: mature; also called Flag-E8; E8 FLIP
B2: binds [2]; binds [3].

B3: no binding [4]; binds [5].
